Source: the nanobody polyreactivity screen of Harvey et al. (2022)

Assay: yeast display, Sf9 membrane polyspecificity reagent, FACS + sequencing; frameworks hold sequencing errors
Procedure, shortened: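 Sorting gates, low and high (top ~1%), were placed on anti-HA fluorescence to track expression and on streptavidin fluorescence to track reagent binding. A clone's polyreactivity label is taken from the gate it came out of. The reagent was 10% biotinylated, detergent-solubilized Sf9 membrane, applied for 1 hour at 4 °C to galactose-induced yeast display cells.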

Sequence: QVQLVESGGGLVQAGGSLRLSCAASGSTFTINVMGWYRQAPGKERELVAAINGGGRTNYADYVKGRFTISRDNAKNTVYLQMNSLKPEDTAVYYCAADCYTYWFYQLIPDYDYWGQGTQVTVSS
- polyreactivity (PSR sort gate): low polyreactivity

Sequence: QVHLVESGGGLVQAGGSLRLSCAASGSTFRRNAMGWYRQAPGKERELVASITSGGSTYYADSVKGRFTITRDNAKNTVYLQMNSLKPEDTGVYYCAVVWRGGYRWPYEYWGQGTQVTVSS
- polyreactivity (PSR sort gate): low polyreactivity

Sequence: QVQLVESGGGLVQAGGSLRLSCAASGSIFGYYVMGWYRQAPGKERELVAAISRSGGSTYYADSVKGRFTISRDNAKNTVYLQMNSLIPEATAVYYCAARGTAERDYWGQGNQVTVSS
- polyreactivity (PSR sort gate): high polyreactivity

Sequence: QVQLVESGGGLVQAGGSLRISCAASGSISVYNAMGWYRQAPGKERELVAAISWSGGRTSYADSVKGRFTISRDNAKKTVYLQMNSLKPEDTEVYYCAADELTVLWDEDYWGQGTQVTVSS
- polyreactivity (PSR sort gate): low polyreactivity

Sequence: QVQLVESGGGLVQAGRSLRLSCAASGSTFYGYAMGWYRQPPGKERELVAAITSSGGSTYYADSVKGRFTISRDNAKITVYVQLNSLKPEDTAVYYCNAKRAPWGTLYNYWGQGTQVTVSS
- polyreactivity (PSR sort gate): high polyreactivity

Sequence: QVQLVESGGGLVQAGGSLRLSCAASGFTFSYNTMGWYRQAPGKERELVAAIDGSGGSTYYADSVKGRFTISRDNAKNTVYLQMNSLKPEDTAVYYCAAEWYRGGEYRRYDYWGQGTQVTVSS
- polyreactivity (PSR sort gate): high polyreactivity

Sequence: QVQLVESGGGLVQAGGSLHLSCAASGSIFRKNAMGWYRQAPGKERELVAVITSSGASTYYADSVKGRFTISRDNAKNTVYLQMNSLKPEDTAVYYCNAPSFYTKKMYSWGQGTQVTVSS
- polyreactivity (PSR sort gate): high polyreactivity

Sequence: QVQLVESGGGLVQAGGSLRLSCAASGIIFEYYAMGWYRQAPGKERELVAAISKRGGSTYYADSVKGRFTISRDNAKNTVYLQMNSLKPEDTAVYYCNARRWWVIRDYWGQGTQVTVSS
- polyreactivity (PSR sort gate): high polyreactivity

Sequence: QVQLVESGGGLVQAGGSLRLSFAASGSTFDWYVMGWYRQAPGKERELVAAINQGSGSTYYADSVKGRFTISRDNAKNTVYFQMNSLKPEDTAVYYCAADRYGAGYLYWPYDYWGQGTQVTVSS
- polyreactivity (PSR sort gate): low polyreactivity

Sequence: QVQLVESAGGLVQAGGSLRLSCAPSGRIFLTNAMGWYRQAPGKERELVAAITSGGSTYYADSVKGRFTISRDNAKNTVYLQMNSLKPEDTAVYYCNADTDRYWPYEYDYWGQGTQVTVSS
- polyreactivity (PSR sort gate): low polyreactivity

Sequence: QVQLVESGGGLVQAGGSLRLSCAASGRIFYGYAMGWYRKAPVKEREFVAAITVSAGSTYYADSVKGRFTISRDNAKNTVYLLMNSLKPEDTAVYYCASKRYVYPSYRFDYWGQGTQVSVSS
- polyreactivity (PSR sort gate): low polyreactivity

Sequence: QVQLVESGGGLVQAGGSLRLSCAASGSTFYYYGMGWYRQAPGKERELVAAINWSGGTTYYADSVKGRFTISRDNAKNTVYLQMNSLKPEDTAVYYCATEHNHLGYYYWGQGTQVTVSS
- polyreactivity (PSR sort gate): low polyreactivity

Sequence: QVQLVESGGGLVQAGGSLRLSCAASGFIFTPYAMGWYRQAPGKERELVAAITWRGARTYYADSVKGRFTISRDIAKNSVYLQMNSLKPEDTAVYYCAALSRRSYAPRDDYWGQGTQVTVSS
- polyreactivity (PSR sort gate): high polyreactivity

Sequence: QVQLVESGGGLVQAGGSLRLSCAASGSIFYNNAMGWYRQAPGKERELVAAITIGGSTNYADSVKGRFTISRDNAKNTVYLQMNSLKPEDTAVYYCAAGKPGAYRYGSIVRFDHWGQGTQVTVSS
- polyreactivity (PSR sort gate): low polyreactivity

Sequence: QVQLVESGGGLVQAGGSLRLSCAASGRIFPANAMGWYRQAPWKERELVAAISSTGGSTYYADSVKGRFTISRDNAKNSVYLQMKSLKPEDTAVYYCAKVHYRWPRVTWPNVWWSFEYWGQGTQVSVSS
- polyreactivity (PSR sort gate): low polyreactivity

Sequence: QVQLVESGGGLVQAGGSLRLSCAASGITFQSNAMGWYRQAPGKERELVAGISGSGTSTYYADSVKGRFTISRDNAKNTVYLQMNSLKPEDTAVYYCAAAQSKYSFYWGDYYYWGQGTQVTVSS
- polyreactivity (PSR sort gate): high polyreactivity

Sequence: QVQLVESGGGLVQAGGSLRLSCAASGSIFRSNAMGWYRPAPGKERELVAAISRRGGSTYYADSVKGRFTISRDNAKNPVYLQMNSLKPEDTAVYYCAAPTIVSGHDSWGQGTQVTVSS
- polyreactivity (PSR sort gate): high polyreactivity

Sequence: QVQLVESGGGLVQAGGSLRLSCAASGRIFYFYAMGWYRQAPGKERELVAAITSGGGTYYADSVKGRFTISRDNAKNTVYLQMNSLKPEDTAVYYCDVRVYRTSWQGYYYWGQGTQVTVSS
- polyreactivity (PSR sort gate): high polyreactivity

Sequence: QVQLVESGGGLVQAGGSLRLSCAASGFTFYRYTMGWYRQAPGKERELVAAISRGGRTYYADSVKGRFTISRDNAKNTVYLQMNSLKPEDTAVYYCNARYPSADDWGQGTQVTVSS
- polyreactivity (PSR sort gate): high polyreactivity

Sequence: QVQLVESGGGLVQAGGSLRLSCAGSGFIFTDYAMGWYRQAPGKERELVATISWSGSSTYYADSVKGRFTISRDNAKNTVYLQMNSLKPEDTAVYYCAAEFWYTYPYLVDYWGQGTQVTVSS
- polyreactivity (PSR sort gate): low polyreactivity

Sequence: QGQLVESGGGLVQAGGSLRLSCAASGSTIPVNAMAWYRQAPGKERELVAAITWGDGSTSYADSVKGRFTISRDNAKNTVYLQMNSLKPEDTAVYYCNKDFIYGYDAASYRPEYDYWGQGTQVTVSS
- polyreactivity (PSR sort gate): low polyreactivity

Sequence: QVQLVESGGGLVQAGGSLRLSCAASGRTFYGYGMGWFRQAPGTDRELVAAIRVGGGSTYYADSVKGRFTISRDNAKNTVYLQMNILKPEDTAVYYCASAIYHYRQKDGYWGQGTQVTVSS
- polyreactivity (PSR sort gate): high polyreactivity

Sequence: QVQLVESGGGLVQAGGSLRLSCAASGRTFAYNAMGWYRQAPGKERELVAGITGGNSRTYYADSVKGRFTISRDNAKNTVYLQMNSLKPEDTAVYYCARRFYKGTSKTNLFDYWGQGTQVTVSS
- polyreactivity (PSR sort gate): high polyreactivity

Sequence: QDQLVETGGGLVQAGVSLRISCAASGSTFYYNAMGWYRQAPGKERELVAAITWSGDSTYYADSVKGRFTISRDNAKNTVYLQMNSLKPEDTAVYYCNAEYYDYFDYVSDYWGQGTQVTVSS
- polyreactivity (PSR sort gate): low polyreactivity

Sequence: QVQLVESGGGLVQAGGSLRLSCAASGRTFAIDAMGWYRQAPGKEREFVAAISWSGGDTYYADSVKGRFTISRDNAKNTVYFQMNRLKPEDTAVYYSAGRDNDYEGRDLQDELDYWGQGTQVTVSS
- polyreactivity (PSR sort gate): low polyreactivity

Sequence: QVQLVESGGRLVQAGGSLRLSCAASGLTITRNAMGWYRQAPGKERELVAAISWSGGSTYYADSVKGRFTISRDNAKNTVYLQMNSLKPEDTAVYDCAAEPYKQYTGYYYSGFEYWGQGTQVTVSS
- polyreactivity (PSR sort gate): high polyreactivity

Sequence: EVQLVESGGGLVQPGGSLRLSCAASGYIYSRYRMGWYRQAPGKGREFVAAISGGSSTNYADSVKGRFTISRDNSTNTVYLQMNSLRAEDTAVYYCAAYKIDSDPRVYWGQGTQVTVSS
- polyreactivity (PSR sort gate): low polyreactivity

Sequence: QVQLVESGGGLVQAGGSLRLSCAASGFTFNYYAMGGYRPAPGKERELVAAISTGGSTYYADSVKGRFTFSRDNAKNTVYLQMISLKPEDTAVYYCNAKPRYRKADRLDYWGQGTQVTVSS
- polyreactivity (PSR sort gate): high polyreactivity

Sequence: QVQLVESGGGVVQAGGSLRLSCAASGSTLSYYAMGLYIQAPGTERELVAAITSGVSTNYADSVKGRFTISRDNAKNTVYFQMNSLKPEDTAVYYCAKAYGGYHDDYDYWGQVTQVTVSS
- polyreactivity (PSR sort gate): low polyreactivity

Sequence: QVQLVESGGGLVQAGGSLRLSCAASGRIFRWYAMGWYRQAPGKERELVATISSSGRTNYADSVKGRFTISRDNAKNTVYLQMNSLKPEDTAVYYCNADGGDWFGYVGMDYWGQGTQVTVSS
- polyreactivity (PSR sort gate): high polyreactivity

Sequence: QVQLVESGGGLVQAGGSLRLSCAPSGRIFGTNDMGWYRQAPGKERELVADITSGGSTNYADSVKGSFTISRDNAMNTVYLPMNSLKPEDSAVYYCNARHHNKVARFDYWGQGTQVTVSS
- polyreactivity (PSR sort gate): low polyreactivity

Sequence: QVQLVESGGGLVQAGGSLRLSCAAYGFTFAAYSMGWYRQAPGKEREFVAAITSRDGTTYYADSVKGRFTISGYNAKNTVYLQMNSLKPEDTAVFYCAKDHFNWGVSEVDSWRQGTQVTVSS
- polyreactivity (PSR sort gate): low polyreactivity

Sequence: QVQLVESGGGLVQAGGSLRLSCAASGSTFYYGMGWYRQAPGKERELVAAISSRGGTTYYADSVKGRFTISRDNAKNTVYLQMNSLKPEDTAVYYCAAPVPYYVPRRNEGDYWGQGTQVTVSS
- polyreactivity (PSR sort gate): low polyreactivity

Sequence: QVQLVESGGGLVQAGGSLRLSCAASGGIIQNYVMGWYRQAPGKEREFVATISQRGGITYYADSVKGRFTISRDNAKNTVYLQMNSLKPEDTAVYYCAARSYYAVYYWGQGTQVTVSS
- polyreactivity (PSR sort gate): high polyreactivity

Sequence: QVQLVESGGGLVQAGGSLRLSCAASGRTFRLYAMGWYRQAPGKERELVATITSSGGSTYYADSVKGRFTISRDKAKNTVYLQMNSLKPEDTAVYYCAAQTYYSYDYWGQGTQVTVSS
- polyreactivity (PSR sort gate): low polyreactivity

Sequence: QVQLVESGGRLVQAGGSLRLSCAASGSTFWESVLGWNRQSPGKDRELVAAITTNDDSTYYADSVKGRFTISRDNAKNTVYLQMNSLKPEDTAVYYCNAVQITGQFDYWGQGTQVTVSS
- polyreactivity (PSR sort gate): low polyreactivity

Sequence: QVQLVESGGGLVQAGGSLRLSCAASGRIFQFYTMGWYRQAPGKERELVASISSAGSTNYADSVKGRFTISRDNAKNTVYLQMNSLKPEDTAVYYCRYTYYWMGYWGQGTQVTVSS
- polyreactivity (PSR sort gate): high polyreactivity

Sequence: QVQLQESGGGLVQAGGSLRLSCAASGTISDSGLMGWYRQAPGKERELVAGISSGGITNYADSVKGRFTISRDNAKNTVYLQMKSLKPEDTAVYWGQGTQVTVSS
- polyreactivity (PSR sort gate): low polyreactivity

Sequence: QVQLVESGGGLVQAGGSLRLSCAASGSIFNRYAMGWYRQAPGKERELVAAIRSGDNTNYADSVKGRFTISRDNAKNTVYLQMNSLKPEDTAVYYCAIRTYYRSRTVGWGKMDYWGQGTQVTVSS
- polyreactivity (PSR sort gate): high polyreactivity

Sequence: QVQLVESAGGLVQAGGSLRLSCAASGLTYVPNAMGWYRQAPGKEREIVAAICNNGGRTYYADSVKGRFTISRDNAKNTVYLEMNSLKPEDTAVYYCAKYLSPGERHSYDYWGQGTQVTVSS
- polyreactivity (PSR sort gate): high polyreactivity

Sequence: QVQLVESGGGLVQAGRSLRLSCAASGSTYAKYAMGWYRQAPGKEREVVAVISRTGTITRYADSEKGRFTISRDNAKNTVYLQMNSLKPEDTAVYYCAATIRAYNQHGFLYPYYYWGQGNQVTVSS
- polyreactivity (PSR sort gate): high polyreactivity

Sequence: QVQLVESGGGLFQAGGSLRLSCAATGSIFDYYAMGWYRQAPGKERELDGTITSGVSTYYADSVKGRFTISRDNAKNTVYLQMISLKPEDTAVYYCARDYAKSQDLYKYDYWGQGTQVTGSS
- polyreactivity (PSR sort gate): low polyreactivity

Sequence: QVQLVESGGGLVQAGGSLRLSCAASGIIFSLNTMGWYRQAPGKERELVAAISSSGGSTYYADSVKGRFTISRDNAKNTVYLQMTSLKPEDTAVYYCARRYAPNTSLTFYYWGQGTQVTVSS
- polyreactivity (PSR sort gate): low polyreactivity
